Laboratory results published in patent US20190032033A1.

target: wild type A2AR in HEK293 cell membranes (UniProt P29274); test: cell-based or functional assay
Sequence (P29274 whole entry): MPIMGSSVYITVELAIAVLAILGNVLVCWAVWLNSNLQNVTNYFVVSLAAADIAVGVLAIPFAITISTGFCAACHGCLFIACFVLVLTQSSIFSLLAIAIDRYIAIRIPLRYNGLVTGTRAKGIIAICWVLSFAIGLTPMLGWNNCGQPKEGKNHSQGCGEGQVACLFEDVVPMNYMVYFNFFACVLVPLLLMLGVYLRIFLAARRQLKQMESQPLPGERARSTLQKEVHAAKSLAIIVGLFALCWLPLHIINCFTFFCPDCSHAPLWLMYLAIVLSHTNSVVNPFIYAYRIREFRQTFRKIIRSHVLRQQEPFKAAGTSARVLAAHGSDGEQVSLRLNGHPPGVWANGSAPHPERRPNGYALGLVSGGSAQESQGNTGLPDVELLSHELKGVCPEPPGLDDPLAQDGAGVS

NECA Ki of A2AR in HEK293 membranes, 100 mM NaCl (alone 4.6 µM) | Substance
0.34 µM | Gs-Nb35 (non-lipidated heterotrimeric Gs with nanobody Nb35) (from UniProt P62873 2-340; P59768 2-71)

target: β1AR-WT (wild type-like turkey β1 adrenergic receptor construct) (turkey) (UniProt P07700); test: cell-based or functional assay
Sequence (P07700 other isoform, or with tags, fused parts or gaps limits assumed): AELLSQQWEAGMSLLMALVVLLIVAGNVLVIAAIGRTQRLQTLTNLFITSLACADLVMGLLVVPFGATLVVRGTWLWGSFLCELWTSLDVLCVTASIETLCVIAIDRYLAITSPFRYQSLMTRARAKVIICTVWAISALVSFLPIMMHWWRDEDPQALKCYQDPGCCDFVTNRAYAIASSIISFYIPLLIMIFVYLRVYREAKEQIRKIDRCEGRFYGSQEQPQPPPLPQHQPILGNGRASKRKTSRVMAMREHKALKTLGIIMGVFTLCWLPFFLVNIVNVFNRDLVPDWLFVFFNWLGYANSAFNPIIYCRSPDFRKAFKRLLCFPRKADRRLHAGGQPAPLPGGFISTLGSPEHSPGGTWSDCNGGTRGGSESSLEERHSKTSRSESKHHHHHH

apparent Tm of β1AR-WT complex in DDM (receptor alone 25.9 °C) | apparent Tm of β1AR-WT complex in decylmaltoside (receptor alone 20.4 °C) | fold shift of isoprenaline Ki of β1AR-WT | isoprenaline Ki of membrane-embedded β1AR-WT (alone 40 nM) | norepinephrine Ki of β1AR-WT (alone 158 nM) | Substance | apparent Tm of β1AR-WT complex in nonylglucoside (uncoupled receptor did not survive) | apparent Tm of β1AR-WT complex in octylglucoside (uncoupled receptor did not survive)
35.8 °C | 31.1 °C | 5.9 fold | 0.0068 µM | 0.00036 µM | Gs-Nb35 (non-lipidated heterotrimeric Gs with nanobody Nb35) (from UniProt P62873 2-340; P59768 2-71) | 19 °C | 13.6 °C
32 °C | 28.6 °C | 6.9 fold | 0.0058 µM | 0.0007 µM | Nb80 (VHH) | 16.7 °C | 14.3 °C
– | – | 2.4 fold | 0.017 µM | – | non-lipidated heterotrimeric Gs (Gαsβ1γ2) (from UniProt P62873 2-340; P59768 2-71) | – | –

target: β84 (minimally thermostabilised β1AR construct of Example 2) (UniProt P07700); test: cell-based or functional assay

isoprenaline IC50 of β84, 20 °C (alone […] µM) | isoprenaline IC50 of β84 (alone […] µM) | isoprenaline IC50 of β84, 4 °C | isoprenaline IC50 of β84, 20 °C | isoprenaline IC50 of β84, 4 °C (alone […] µM) | Substance
0.206 µM | – | – | – | – | GTPase domain with βγ-dimer and Nb35 (from UniProt P62873 2-340; P59768 2-71)
– | 0.068 µM | – | – | – | Gs-Nb35 (non-lipidated heterotrimeric Gs with nanobody Nb35) (from UniProt P62873 2-340; P59768 2-71)
– | – | 0.185 µM | 1.8 µM | – | Gαs GTPase domain A48D (from UniProt P63092 45-394)
– | – | 0.015 µM | 0.053 µM | – | Gαs GTPase domain A249D (from UniProt P63092 45-394)
– | – | 0.104 µM | 0.582 µM | – | Gαs GTPase domain A249E (from UniProt P63092 45-394)
– | – | 0.146 µM | 1.6 µM | – | Gαs GTPase domain A249S (from UniProt P63092 45-394)
– | – | 0.093 µM | 1.9 µM | – | Gαs GTPase domain C237E (from UniProt P63092 45-394)
– | – | 0.51 µM | 4.4 µM | – | Gαs GTPase domain D240G (from UniProt P63092 45-394)
– | – | 2.4 µM | – | – | Gαs GTPase domain D295N (from UniProt P63092 45-394)
– | – | 0.055 µM | 1.1 µM | – | Gαs GTPase domain E50N (from UniProt P63092 45-394)
– | – | 0.25 µM | 1.3 µM | – | Gαs GTPase domain F208N (from UniProt P63092 45-394)
– | – | 0.037 µM | 0.428 µM | – | Gαs GTPase domain G49D (from UniProt P63092 45-394)
– | – | 0.044 µM | 0.364 µM | – | Gαs GTPase domain G49D/E50N (from UniProt P63092 45-394)
– | – | 0.127 µM | 1.2 µM | – | Gαs GTPase domain G226A (from UniProt P63092 45-394)
– | – | 0.058 µM | 0.589 µM | – | Gαs GTPase domain H41I (from UniProt P63092 45-394)
– | – | 0.285 µM | 3.9 µM | – | Gαs GTPase domain H41L (from UniProt P63092 45-394)
– | – | 0.307 µM | 1.8 µM | – | Gαs GTPase domain H41M (from UniProt P63092 45-394)
– | – | 0.077 µM | 0.737 µM | – | Gαs GTPase domain H41V (from UniProt P63092 45-394)
– | – | 4.3 µM | – | – | Gαs GTPase domain L270N/I348N (from UniProt P63092 45-394)
– | – | 0.01 µM | 0.464 µM | – | Gαs GTPase domain L272D (from UniProt P63092 45-394)
– | – | 0.042 µM | 0.11 µM | – | Gαs GTPase domain L272E (from UniProt P63092 45-394)
– | – | 0.102 µM | 2 µM | – | Gαs GTPase domain N279D/Q235K (from UniProt P63092 45-394)
– | – | 1.2 µM | 2.8 µM | – | Gαs GTPase domain N279E/I235K (from UniProt P63092 45-394)
– | – | 0.109 µM | 1.8 µM | – | Gαs GTPase domain R199D (from UniProt P63092 45-394)

isoprenaline IC50 of β84, 20 °C (alone […] µM) | isoprenaline IC50 of β84 (alone […] µM) | isoprenaline IC50 of β84, 4 °C | isoprenaline IC50 of β84, 20 °C | isoprenaline IC50 of β84, 4 °C (alone […] µM) | Substance
– | – | 0.108 µM | 1.9 µM | – | Gαs GTPase domain R199K (from UniProt P63092 45-394)
– | – | 0.046 µM | 2.2 µM | – | Gαs GTPase domain R201A (from UniProt P63092 45-394)
– | – | 0.161 µM | 3.3 µM | – | Gαs GTPase domain R356D (from UniProt P63092 45-394)
– | – | 0.229 µM | 2.8 µM | – | Gαs GTPase domain R356S (from UniProt P63092 45-394)
– | – | 0.462 µM | – | – | Gαs GTPase domain S54N (from UniProt P63092 45-394)
– | – | 0.021 µM | 0.142 µM | – | Gαs GTPase domain S252D (from UniProt P63092 45-394)
– | – | 0.057 µM | 0.575 µM | – | Gαs GTPase domain S252E (from UniProt P63092 45-394)
– | – | 0.136 µM | 2 µM | – | Gαs GTPase domain S275D (from UniProt P63092 45-394)
– | – | 4.2 µM | 7 µM | – | Gαs GTPase domain S286C/I382C (from UniProt P63092 45-394)
– | – | 0.115 µM | – | – | Gαs GTPase domain V36D/N218K (from UniProt P63092 45-394)
– | – | 0.551 µM | 2.4 µM | – | Gαs GTPase domain V36D/N218K/T40A (from UniProt P63092 45-394)
– | – | 0.427 µM | 3.2 µM | – | Gαs GTPase domain V36D/N218K/T40D (from UniProt P63092 45-394)
– | – | 0.584 µM | 4 µM | – | Gαs GTPase domain W234A/F238A (from UniProt P63092 45-394)
– | – | 0.081 µM | 2 µM | – | Gαs GTPase domain Y37D (from UniProt P63092 45-394)
– | – | 2.3 µM | – | – | Gαs GTPase domain Y37R/R42D (from UniProt P63092 45-394)
– | – | 0.136 µM | – | – | Gαs GTPase domain parental construct (Example 2) (from UniProt P63092 45-394)
– | – | 0.034 µM | 0.799 µM | – | Gαs GTPase domain Δ227-230/GG linker
– | – | 0.031 µM | 0.03 µM | – | Gαs GTPase domain Δ254-263
– | – | 0.023 µM | 0.142 µM | – | Gαs GTPase domain Δ254-263/Y253P
– | – | 1.3 µM | – | – | Gαs GTPase domain Δ255-262/G linker
– | 0.016 µM | – | – | – | Nb80 (VHH)
3.4 µM | – | – | – | 0.253 µM | isolated GTPase domain of Gαs (Example 2, FIG. 14)
– | 1.4 µM | – | – | – | non-lipidated heterotrimeric Gs (Gαsβ1γ2) (from UniProt P62873 2-340; P59768 2-71)

target: β1AR-84 (minimally thermostabilised turkey β1 adrenergic receptor construct) (turkey) (UniProt P07700); test: cell-based or functional assay
Sequence (P07700 other isoform, or with tags, fused parts or gaps): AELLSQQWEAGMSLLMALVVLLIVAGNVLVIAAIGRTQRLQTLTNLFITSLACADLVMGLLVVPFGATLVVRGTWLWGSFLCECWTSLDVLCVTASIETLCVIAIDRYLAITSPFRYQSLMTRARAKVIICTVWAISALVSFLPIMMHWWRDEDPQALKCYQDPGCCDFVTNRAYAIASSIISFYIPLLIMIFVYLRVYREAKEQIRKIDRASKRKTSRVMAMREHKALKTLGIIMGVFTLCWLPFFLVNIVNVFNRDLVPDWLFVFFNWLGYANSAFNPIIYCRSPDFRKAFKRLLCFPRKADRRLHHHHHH

fold shift of isoprenaline Ki of β1AR-84 | isoprenaline Ki of DDM-solubilised β1AR-84 (alone […] µM) | isoprenaline Ki of β1AR-84, 20 °C (alone […] nM) | isoprenaline Ki of β1AR-84, 4 °C (alone […] nM) | isoprenaline Ki of β1AR-84 with 0.25 mM GTPγS (alone 3.0 µM) | Substance
163 fold | 0.023 µM | 16 nM | – | – | Gs-Nb35 (non-lipidated heterotrimeric Gs with nanobody Nb35) (from UniProt P62873 2-340; P59768 2-71)
93 fold | 0.083 µM | 28 nM | – | – | Nb80 (VHH)
9.6 fold | – | 271 nM | 419 nM | 2.7 µM | non-lipidated heterotrimeric Gs (Gαsβ1γ2) (from UniProt P62873 2-340; P59768 2-71)

target: near wild type β1AR construct (β6) (UniProt P07700); test: cell-based or functional assay
Sequence (P07700 33-424): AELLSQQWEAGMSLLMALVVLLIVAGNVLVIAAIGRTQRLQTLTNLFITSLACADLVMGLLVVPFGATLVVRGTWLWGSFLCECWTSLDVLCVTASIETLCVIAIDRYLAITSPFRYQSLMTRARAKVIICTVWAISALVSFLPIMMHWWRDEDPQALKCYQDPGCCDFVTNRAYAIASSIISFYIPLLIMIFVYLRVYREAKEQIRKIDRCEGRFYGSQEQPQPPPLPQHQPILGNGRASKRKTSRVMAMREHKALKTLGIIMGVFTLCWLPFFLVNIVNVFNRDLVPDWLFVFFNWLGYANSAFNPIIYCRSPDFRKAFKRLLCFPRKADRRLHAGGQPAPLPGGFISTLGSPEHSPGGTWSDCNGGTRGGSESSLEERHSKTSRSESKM

fold increase of isoprenaline affinity of the near wild-type β1AR | isoprenaline IC50 of β6 (alone […] nM) | Substance
3.5 fold | 51 nM | Nb80 (VHH)
